# Measurements as given in US20210054071A1 (NANJING LEGEND BIOTECH, published 2021).
# Where two headings read alike, the source gives them in different places.
# T1: TIGIT on TIGIT effector cells (UniProt Q495A1 22-244, limits assumed)
# T1 sequence (looked up): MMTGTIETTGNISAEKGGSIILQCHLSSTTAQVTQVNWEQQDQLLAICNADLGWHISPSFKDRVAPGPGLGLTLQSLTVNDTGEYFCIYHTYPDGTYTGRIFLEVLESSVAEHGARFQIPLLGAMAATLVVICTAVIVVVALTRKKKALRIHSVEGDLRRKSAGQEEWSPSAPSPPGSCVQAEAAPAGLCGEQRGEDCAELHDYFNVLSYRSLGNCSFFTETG
# T2: mouse TIGIT-His protein (Acrobiosystems) (mouse, UniProt P86176 29-148, limits assumed)
# T2 construct: bought
# T2 sequence (looked up): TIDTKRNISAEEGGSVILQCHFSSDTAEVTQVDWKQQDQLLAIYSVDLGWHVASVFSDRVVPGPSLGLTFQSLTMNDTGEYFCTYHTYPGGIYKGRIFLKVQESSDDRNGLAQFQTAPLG
# T3: TIGIT on activated primary human T cells (human, UniProt Q495A1)
# T3 sequence (receptor, looked up): T1 sequence (looked up)
# T4: human TIGIT expressed on CHO-K1 cells (human, UniProt Q495A1 22-244)
# T4 construct: also called CHO/human TIGIT cells; CHO-TIGIT cells
# T4 sequence: T1 sequence (looked up)
# T5: human TIGIT-His protein (Acrobiosystems) (human, UniProt Q495A1 22-141)
# T5 construct: Bought; Genbank NP_776160
# T5 sequence: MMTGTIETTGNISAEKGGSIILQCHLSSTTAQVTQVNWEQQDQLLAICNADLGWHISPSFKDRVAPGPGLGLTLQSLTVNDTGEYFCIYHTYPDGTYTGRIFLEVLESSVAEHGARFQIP
# B1: BTP-11 (bispecific antibody, human IgG4 S228P, kappa)
# heavy: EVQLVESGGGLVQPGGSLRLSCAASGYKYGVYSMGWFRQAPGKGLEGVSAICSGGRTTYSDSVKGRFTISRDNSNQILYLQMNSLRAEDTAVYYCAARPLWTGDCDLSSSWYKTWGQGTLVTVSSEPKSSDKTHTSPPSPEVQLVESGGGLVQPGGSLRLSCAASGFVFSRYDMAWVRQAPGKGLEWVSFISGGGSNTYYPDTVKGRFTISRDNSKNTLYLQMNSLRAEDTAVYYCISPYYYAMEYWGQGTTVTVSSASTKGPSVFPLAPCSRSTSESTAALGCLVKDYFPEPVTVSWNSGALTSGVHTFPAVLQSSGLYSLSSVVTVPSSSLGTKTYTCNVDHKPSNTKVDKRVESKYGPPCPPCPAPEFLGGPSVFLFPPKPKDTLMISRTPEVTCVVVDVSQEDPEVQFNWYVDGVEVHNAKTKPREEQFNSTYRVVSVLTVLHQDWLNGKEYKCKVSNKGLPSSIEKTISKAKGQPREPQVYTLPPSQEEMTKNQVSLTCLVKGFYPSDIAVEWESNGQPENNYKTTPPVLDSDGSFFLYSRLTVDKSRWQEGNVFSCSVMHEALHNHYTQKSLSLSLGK
# light: DIQMTQSPSSVSASVGDRVTITCKASQDVDTAVAWYQQKPGKAPKLLIYWASTRHTGVPSRFSGSGSGTDFTLTISSLQPEDFATYYCQQYSTFPWTFGGGTKVEIKRTVAAPSVFIFPPSDEQLKSGTASVVCLLNNFYPREAKVQWKVDNALQSGNSQESVTEQDSKDSTYSLSSTLTLSKADYEKHKVYACEVTHQGLSSPVTKSFNRGEC
# notes: AS19584VH28 - mutated hIgG1 hinge - PD1-BM-min heavy chain (IgG4); also called BTP-11 (IgG4); PD-1×TIGIT BABP
# B2: PD1-BM-min (IgG4) (antibody, V domains shown)
# VH: EVQLVESGGGLVQPGGSLRLSCAASGFVFSRYDMAWVRQAPGKGLEWVSFISGGGSNTYYPDTVKGRFTISRDNSKNTLYLQMNSLRAEDTAVYYCISPYYYAMEYWGQGTTVTVSS
# VL: DIQMTQSPSSVSASVGDRVTITCKASQDVDTAVAWYQQKPGKAPKLLIYWASTRHTGVPSRFSGSGSGTDFTLTISSLQPEDFATYYCQQYSTFPWTFGGGTKVEIKR
# notes: anti-PD-1 monoclonal antibody, human IgG4 Fc
# B3: BTP-13 (bispecific antibody, human IgG4 S228P, kappa)
# heavy: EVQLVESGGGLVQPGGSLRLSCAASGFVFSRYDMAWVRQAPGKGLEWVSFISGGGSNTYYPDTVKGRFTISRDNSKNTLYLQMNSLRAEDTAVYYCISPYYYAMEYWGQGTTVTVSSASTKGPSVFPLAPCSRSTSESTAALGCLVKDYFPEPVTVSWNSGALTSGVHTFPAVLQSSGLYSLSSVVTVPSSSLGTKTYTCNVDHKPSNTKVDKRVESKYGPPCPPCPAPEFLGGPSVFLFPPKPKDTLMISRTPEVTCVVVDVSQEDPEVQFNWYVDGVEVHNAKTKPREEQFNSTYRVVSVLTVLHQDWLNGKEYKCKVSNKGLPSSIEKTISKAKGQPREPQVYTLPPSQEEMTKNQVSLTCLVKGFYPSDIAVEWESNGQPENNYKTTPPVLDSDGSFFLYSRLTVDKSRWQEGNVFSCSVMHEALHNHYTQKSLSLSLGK
# light: EVQLVESGGGLVQPGGSLRLSCAASGYKYGVYSMGWFRQAPGKGLEGVSAICSGGRTTYSDSVKGRFTISRDNSNQILYLQMNSLRAEDTAVYYCAARPLWTGDCDLSSSWYKTWGQGTLVTVSSEPKSSDKTHTSPPSPDIQMTQSPSSVSASVGDRVTITCKASQDVDTAVAWYQQKPGKAPKLLIYWASTRHTGVPSRFSGSGSGTDFTLTISSLQPEDFATYYCQQYSTFPWTFGGGTKVEIKRTVAAPSVFIFPPSDEQLKSGTASVVCLLNNFYPREAKVQWKVDNALQSGNSQESVTEQDSKDSTYSLSSTLTLSKADYEKHKVYACEVTHQGLSSPVTKSFNRGEC
# notes: AS19584VH28 - mutated hIgG1 hinge - PD1-BM-min light chain; PD1-BM-min heavy chain (IgG4); also called BTP-13 (IgG4); PD-1×TIGIT BABP
# B4: Tiragolumab (antibody, human IgG1, kappa, V domains shown)
# VH: EVQLQQSGPGLVKPSQTLSLTCAISGDSVSSNSAAWNWIRQSPSRGLEWLGKTYYRFKWYSDYAVSVKGRITINPDTSKNQFSLQLNSVTPEDTAVFYCTRESTTYDLLAGPFDYWGQGTLVTVSS
# VL: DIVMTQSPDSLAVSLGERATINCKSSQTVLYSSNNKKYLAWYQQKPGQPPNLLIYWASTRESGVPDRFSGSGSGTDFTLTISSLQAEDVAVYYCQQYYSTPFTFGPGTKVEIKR
# notes: also called Tiragolumab (anti-TIGIT)
# B5: AS19584VH28-Fc fusion protein with effectorless human IgG1 (inert hIgG1) Fc (Fc fusion)
# chain: EVQLVESGGGLVQPGGSLRLSCAASGYKYGVYSMGWFRQAPGKGLEGVSAICSGGRTTYSDSVKGRFTISRDNSNQILYLQMNSLRAEDTAVYYCAARPLWTGDCDLSSSWYKTWGQGTLVTVSSAPELLGGPSVFLFPPKPKDTLMISRTPEVTCVVVDVSHEDPEVKFNWYVDGVEVHNAKTKPREEQYASTYRVVSVLTVLHQDWLNGKEYKCKVSNKALPAPIEKTISKAKGQPREPQVYTLPPSREEMTKNQVSLTCLVKGFYPSDIAVEWESNGQPENNYKTTPPVLDSDGSFFLYSKLTVDKSRWQQGNVFSCSVMHEALHNHYTQKSLSLSPGK
# notes: built from the sdAb and the inert IgG1 Fc region it names; also called AS19584VH28 (inert IgG1); AS19584VH28 inert IgG1
# B6: 22G2 (IgG1) mAb (antibody, V domains shown)
# VH: QVQLQESGPGLVKPSETLSLTCTVSGGSVSSGIYYWSWIRQPPGKGLEWIGYIYYSGSTNYNPSLKSRVTISVDTSKNQFSLKLSSVTAADTAVYYCARDYYVSGNYYNVDYYFFGVDVWGQGTTVTVSS
# VL: EIVLTQSPATLSLSPGERATLSCRASQSVSSYLAWYQQKPGQAPRLLIYDASNRATGIPARFSGSGSGTDFTLTISSLEPEDFAVYYCQQRSNWPPLFTFGPGTKVDIKR
# notes: also called 22G2 (IgG1) (anti-TIGIT)
# Assays:
# PD-1 expressed on cells [1] = target: T6, PD-1 expressed on cells (UniProt Q15116 25-288, limits assumed); experiment: FACS, CHO-PD-1 cells
# T6 construct: whole, on cells; also called CHO-PD-1 cells; PD-1 effector cells
# T6 sequence (Q15116 25-288 limits assumed): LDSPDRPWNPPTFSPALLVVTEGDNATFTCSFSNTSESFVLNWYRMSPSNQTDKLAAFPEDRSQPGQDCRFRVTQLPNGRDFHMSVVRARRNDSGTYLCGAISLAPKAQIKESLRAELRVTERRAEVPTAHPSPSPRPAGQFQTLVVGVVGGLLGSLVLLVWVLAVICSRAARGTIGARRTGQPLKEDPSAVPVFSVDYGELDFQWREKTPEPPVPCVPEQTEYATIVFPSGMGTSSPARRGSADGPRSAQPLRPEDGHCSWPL
# PD-1 expressed on cells [2] = target: T6, PD-1 expressed on cells; experiment: FACS competition, PD-L1 binding to CHO-PD-1 cells
# PD-1 expressed on cells [3] = target: T6, PD-1 expressed on cells; experiment: cell-based or functional assay
# [4] = target: T1, TIGIT on TIGIT effector cells; experiment: cell-based or functional assay
# [5] = target: T2, mouse TIGIT-His protein (Acrobiosystems); experiment: SPR as in Example 2
# [6] = target: T7, human PD-1 (Acrobiosystems) (human, UniProt Q15116 25-167); experiment: SPR as in Example 2
# T7 construct: bought
# T7 sequence (Q15116 25-167 limits assumed): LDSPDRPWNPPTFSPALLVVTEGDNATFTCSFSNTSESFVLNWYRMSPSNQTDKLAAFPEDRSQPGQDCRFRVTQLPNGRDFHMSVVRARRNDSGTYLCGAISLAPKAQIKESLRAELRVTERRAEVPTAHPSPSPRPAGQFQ
# [7] = target: T3, TIGIT on activated primary human T cells; experiment: FACS binding to activated, expanded primary human CD8+ T cells isolated from PBMCs; the sheet names only the cells, target by the binder's specificity as named in the filing (anti-TIGIT)
# [8] = target: T4, human TIGIT expressed on CHO-K1 cells; experiment: FACS competition, CD155 binding to CHO-TIGIT cells
# [9] = target: T4, human TIGIT expressed on CHO-K1 cells; experiment: FACS, CHO-TIGIT cells
# [10] = target: T1, TIGIT on TIGIT effector cells; experiment: cell-based or functional assay; remark: listed apart in the source
# [11] = target: T3, TIGIT on activated primary human T cells; experiment: FACS binding to activated, expanded primary human CD4+ T cells isolated from PBMCs; the sheet names only the cells, target by the binder's specificity as named in the filing (anti-TIGIT)
# [12] = target: T5, human TIGIT-His protein (Acrobiosystems); experiment: SPR as in Example 2
# [13] = target: T4, human TIGIT expressed on CHO-K1 cells; experiment: FACS, CHO-K1 cells expressing human TIGIT
# [14] = target: T8, cynomolgus TIGIT expressed on CHO-K1 cells (cynomolgus, UniProt A0A7N9I9V4 89-312); experiment: FACS, CHO-K1 cells expressing cynomolgus TIGIT
# T8 construct: whole, on cells
# T8 sequence (A0A7N9I9V4 entry or part of it): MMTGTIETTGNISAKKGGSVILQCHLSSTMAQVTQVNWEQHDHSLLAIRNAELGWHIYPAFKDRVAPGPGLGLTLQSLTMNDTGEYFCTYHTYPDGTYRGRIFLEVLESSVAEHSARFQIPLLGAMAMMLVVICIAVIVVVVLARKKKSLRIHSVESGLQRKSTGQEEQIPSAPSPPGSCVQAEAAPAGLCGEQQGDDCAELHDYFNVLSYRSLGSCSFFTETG
# [15] = target: T8, cynomolgus TIGIT expressed on CHO-K1 …; experiment: FACS, CHO-K1 cells expressing cynomolgus TIGIT; remark: listed apart in the source
# [16] = target: T4, human TIGIT expressed on CHO-K1 cells; experiment: FACS competition, CD155 binding to CHO-TIGIT cells; remark: listed apart in the source
# [17] = target: T4, human TIGIT expressed on CHO-K1 cells; experiment: FACS competition, biotinylated CD155-Fc on CHO/human TIGIT cells
# [18] = target: T9, cynomolgus TIGIT-His protein (Acrobiosystems) (cynomolgus, UniProt A0A7N9I9V4 89-209); experiment: SPR (BIAcore T200), target amine-coupled to CM5 chip
# T9 construct: bought
# T9 sequence (A0A7N9I9V4 entry or part of it): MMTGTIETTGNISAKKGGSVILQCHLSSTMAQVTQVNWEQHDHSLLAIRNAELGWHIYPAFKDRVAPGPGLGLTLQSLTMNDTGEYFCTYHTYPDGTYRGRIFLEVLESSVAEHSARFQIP
# [19] = target: T5, human TIGIT-His protein (Acrobiosystems); experiment: as above
# [20] = target: T9, cynomolgus TIGIT-His protein …; experiment: as above; remark: listed apart in the source
# [21] = target: T5, human TIGIT-His protein (Acrobiosystems); experiment: as above; remark: listed apart in the source
# [22] = target: T4, human TIGIT expressed on CHO-K1 cells; experiment: FACS, CHO-K1 cells expressing human TIGIT; remark: listed apart in the source
# [23] = target: T1, TIGIT on TIGIT effector cells; experiment: cell-based or functional assay; remark: listed apart in the source
# [24] = target: T4, human TIGIT expressed on CHO-K1 cells; experiment: FACS, CHO-TIGIT cells; remark: listed apart in the source
# [25] = target: T1, TIGIT on TIGIT effector cells; experiment: cell-based or functional assay; remark: listed apart in the source
# [26] = target: T4, human TIGIT expressed on CHO-K1 cells; experiment: FACS competition, biotinylated CD155-Fc on CHO/human TIGIT cells; remark: listed apart in the source
# [27] = target: T1, TIGIT on TIGIT effector cells; experiment: cell-based or functional assay; remark: listed apart in the source
binder,measurement,setting,value
B1,EC50,PD-1 expressed on cells [1],6.31 nM
same,EC50,PD-1 expressed on cells [2],8.68 nM
same,PD-1 cell based assay EC50,PD-1 expressed on cells [3],8.51 nM
same,TIGIT IL-2 release EC50,[4],0.778 nM
same,TIGIT Reporter assay EC50,[4],7.81 nM
same,Kd,[5],0.5 nM
same,Kd,[6],4 nM
B2,EC50,PD-1 expressed on cells [1],1.72 nM
same,EC50,PD-1 expressed on cells [2],1.51 nM
same,PD-1 cell based assay EC50,PD-1 expressed on cells [3],1.21 nM
same,Kd,[6],1.2 nM
B3,EC50,PD-1 expressed on cells [1],1.92 nM
same,EC50,PD-1 expressed on cells [2],2.21 nM
same,PD-1 cell based assay EC50,PD-1 expressed on cells [3],2.33 nM
same,TIGIT IL-2 release EC50,[4],0.565 nM
same,TIGIT Reporter assay EC50,[4],4.03 nM
same,Kd,[5],0.62 nM
same,Kd,[6],0.42 nM
B4,EC50,[7],1.41 nM
same,EC50,[8],2.42 nM
same,EC50,[9],2.24 nM
same,PD-L1/TIGIT bifunctional reporter assay: EC50,[10],3.61 nM
same,PD-L1/TIGIT bifunctional reporter assay: Upper plateau of signal,[10],983
same,EC50,[11],0.403 nM
same,TIGIT Reporter assay EC50,[4],11.4 nM
B5,EC50,[7],0.174 nM
same,PD-L1/TIGIT bifunctional reporter assay: EC50,[10],10.6 nM
same,PD-L1/TIGIT bifunctional reporter assay: Upper plateau of signal,[10],1610
same,EC50,[11],0.107 nM
same,TIGIT Reporter assay EC50,[4],5.42 nM
same,Kd,[5],1.1 nM
same,Kd,[12],0.36 nM
B6,EC50,[13],1.14 nM
same,EC50,[8],2.31 nM
same,EC50,[14],0.604 nM
same,EC50,[9],1.6 nM
same,EC50,[15],1.12 nM
same,EC50,[16],1.11 nM
same,EC50,[17],2.7 nM
same,Kd,[18],4.1 nM
same,koff,[18],0.0056 s⁻¹
same,kon,[18],1.3e+06 M⁻¹ s⁻¹
same,Kd,[19],0.12 nM
same,koff,[19],0.00016 s⁻¹
same,kon,[19],1.4e+06 M⁻¹ s⁻¹
same,Kd,[20],3.4 nM
same,koff,[20],0.0068 s⁻¹
same,kon,[20],2e+06 M⁻¹ s⁻¹
same,Kd,[21],0.19 nM
same,koff,[21],0.00027 s⁻¹
same,kon,[21],1.4e+06 M⁻¹ s⁻¹
same,TIGIT Reporter assay EC50,[4],4.65 nM
same,EC50,[22],0.494 nM
same,IL-2 release assay EC50,[23],3.07 nM
same,Reporter assay EC50,[23],3.04 nM
same,EC50,[24],2.46 nM
same,"TIGIT/CD155 blockade reporter assay, EC50",[25],7.92 nM
same,"TIGIT/CD155 blockade reporter assay, Signal span",[25],108
same,EC50,[26],1.94 nM
same,TIGIT IL-2 release EC50,[27],2.26 nM
same,TIGIT Reporter assay EC50,[27],6.01 nM
